This note sets out measurements from patent US20260209362A1 (VIB VZW, published 2026).

Where a chain is given by its changes, count along the chain named.

The labels stand for the following.
T1: biotinylated recombinant human IL-12Rβ2 (produced in-house) (human, UniProt Q99665 24-622, random biotinylated)
T1 construct: also called hIL-12RB2; hIL12RB2
T1 sequence: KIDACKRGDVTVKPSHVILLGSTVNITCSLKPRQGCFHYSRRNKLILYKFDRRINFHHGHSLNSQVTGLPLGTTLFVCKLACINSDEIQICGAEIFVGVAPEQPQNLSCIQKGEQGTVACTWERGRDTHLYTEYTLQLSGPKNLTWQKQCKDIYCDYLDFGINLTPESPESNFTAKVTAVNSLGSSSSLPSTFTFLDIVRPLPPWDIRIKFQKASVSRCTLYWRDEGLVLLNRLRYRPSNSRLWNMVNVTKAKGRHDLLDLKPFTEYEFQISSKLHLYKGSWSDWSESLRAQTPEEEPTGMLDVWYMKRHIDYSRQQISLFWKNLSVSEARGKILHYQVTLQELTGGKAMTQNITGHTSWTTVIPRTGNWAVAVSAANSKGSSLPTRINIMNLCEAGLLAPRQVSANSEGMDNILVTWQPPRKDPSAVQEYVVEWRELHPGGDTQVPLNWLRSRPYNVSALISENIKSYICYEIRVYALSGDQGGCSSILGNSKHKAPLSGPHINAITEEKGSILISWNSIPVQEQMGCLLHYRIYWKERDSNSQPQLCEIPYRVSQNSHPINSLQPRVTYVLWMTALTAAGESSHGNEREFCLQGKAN

T2: human IL-12Rβ2 expressed on cells (human, UniProt Q99665 24-862)
T2 construct: HEK293T cells transiently transfected with a human IL-12Rβ2 plasmid (Genscript OHu21785); also called hIL-12RB2
T2 sequence: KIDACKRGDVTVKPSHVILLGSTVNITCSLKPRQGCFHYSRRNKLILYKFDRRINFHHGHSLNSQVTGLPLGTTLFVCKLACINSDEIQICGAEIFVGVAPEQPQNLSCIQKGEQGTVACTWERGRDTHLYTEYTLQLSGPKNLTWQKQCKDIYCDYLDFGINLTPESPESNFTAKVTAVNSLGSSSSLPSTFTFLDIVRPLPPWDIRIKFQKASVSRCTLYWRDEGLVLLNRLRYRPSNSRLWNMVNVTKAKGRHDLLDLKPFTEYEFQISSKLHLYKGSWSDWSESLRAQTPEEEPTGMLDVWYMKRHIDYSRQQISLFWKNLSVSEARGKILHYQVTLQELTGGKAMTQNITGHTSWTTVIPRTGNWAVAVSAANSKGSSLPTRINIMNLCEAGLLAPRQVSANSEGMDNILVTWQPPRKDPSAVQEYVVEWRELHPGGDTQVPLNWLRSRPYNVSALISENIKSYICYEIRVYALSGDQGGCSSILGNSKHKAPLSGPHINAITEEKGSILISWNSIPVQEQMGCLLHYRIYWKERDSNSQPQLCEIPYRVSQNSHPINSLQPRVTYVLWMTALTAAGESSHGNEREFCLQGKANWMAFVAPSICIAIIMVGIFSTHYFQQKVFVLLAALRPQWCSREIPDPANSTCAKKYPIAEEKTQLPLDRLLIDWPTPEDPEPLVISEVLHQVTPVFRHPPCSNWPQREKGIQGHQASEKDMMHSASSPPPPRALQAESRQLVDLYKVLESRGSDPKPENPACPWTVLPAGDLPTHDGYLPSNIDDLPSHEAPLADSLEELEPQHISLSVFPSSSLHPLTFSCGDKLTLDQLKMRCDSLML

T3: biotinylated recombinant mouse IL-12Rβ2 (produced in-house) (mouse, UniProt P97378 24-637, random biotinylated)
T3 construct: also called mIL-12RB2; mIL12RB2
T3 sequence: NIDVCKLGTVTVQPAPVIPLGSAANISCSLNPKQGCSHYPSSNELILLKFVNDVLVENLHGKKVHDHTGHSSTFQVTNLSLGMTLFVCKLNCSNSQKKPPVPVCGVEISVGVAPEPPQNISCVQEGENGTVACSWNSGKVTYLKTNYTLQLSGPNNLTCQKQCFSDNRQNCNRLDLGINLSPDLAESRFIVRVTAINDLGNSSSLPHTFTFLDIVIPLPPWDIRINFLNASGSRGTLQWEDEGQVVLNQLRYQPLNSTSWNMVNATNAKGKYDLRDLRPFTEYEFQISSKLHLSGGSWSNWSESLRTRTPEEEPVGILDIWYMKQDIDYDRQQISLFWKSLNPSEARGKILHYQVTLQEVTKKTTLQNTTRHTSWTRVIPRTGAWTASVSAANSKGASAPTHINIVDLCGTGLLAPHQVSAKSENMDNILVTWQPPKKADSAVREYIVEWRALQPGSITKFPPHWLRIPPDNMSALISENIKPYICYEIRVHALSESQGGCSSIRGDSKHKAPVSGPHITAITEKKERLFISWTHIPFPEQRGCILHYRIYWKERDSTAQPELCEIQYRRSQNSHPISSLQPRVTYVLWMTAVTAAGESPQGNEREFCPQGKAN

B1: anti-IL-12Rβ2 VHH clone 3CRHS106 (VHH, not shown: small tags and cut ends)
VHH: QVQLQESGGGLVQPGGSLRLSCKASGFTFSTYAMSWVRQAPGKGLEWVSAVNSGGLSTDYADSVEGRFTISRDDAKNMLFLQMNSLKPEDTARYYCAKYEDCSDYMCHRDRAGYWGQGTQVTVSS
notes: tested as periplasmic extract
B2: anti-IL-12Rβ2 VHH clone 3CAHS142 (VHH, not shown: small tags and cut ends)
VHH: QVQLQESGGGLVQAGESLTLSCIASGVIKDYAMGWFRQAPGKEREFVAAISWSGVSIYYADSVKGRFTISRDNAKNTVYLQMNSLEPEDTAVYYCAGTEGAYTVAGGSTFGYDMDYWGKGTQVTVSS
notes: tested as periplasmic extract
B3: anti-IL-12Rβ2 VHH clone 3CRH5 (VHH, not shown: small tags and cut ends)
VHH: QVQLQESGGGLVQAGGSLVLSCAASGSAALIFLMSWYRQAPGKQRELVAEVSRGGSTTYADSVEGRFTISRDNAKNIVDLQMNSLKPEDTAVYYCKADQNYGDSLRSSWGQGTQVTVSS
notes: tested as periplasmic extract; also called 3CRHS
B4: anti-IL-12Rβ2 VHH clone 3CAHS124 (VHH, not shown: small tags and cut ends)
VHH: QVQLQESGGGLVQPGGSLRLSCAASGRTINAYIMGWFRQAPGKEREFVAAVSGSGGSTYYADSVKGRFTISRDNAKNTVNLQMDNLRSEDTDVYYCAATYESVYLQNPGQYDYWGQGTQVTVSS
notes: tested as periplasmic extract
B5: anti-IL-12Rβ2 VHH clone 3CAHS102 (VHH, not shown: small tags and cut ends)
VHH: QVQLQESGGGLVQPGGSLRLSCAASGSILRINLMGWYRQVPGKQRELVAEMSTGGSTTYVDSVEGRFTISRDNAKNTVYLQMNSLKPEDTAVYYCNAKAWQLGRLENDDWGQGTQVTVSS
notes: tested as periplasmic extract
B6: anti-IL-12Rβ2 VHH clone 3CRH25 (VHH, not shown: small tags and cut ends)
VHH: QVQLQESGGGLVQAGDSLRLSCTASGHTFSRYTTIGWFRQAPGKDREFVAAIRWSGDITDYADAVKGRFTISRDNVKNTVYLQMNSLNPEDTAVYYCARGYSEYGVLSRNRGLYAYWGQGTQVTVSS
notes: tested as periplasmic extract
B7: anti-IL-12Rβ2 VHH clone 3CRHS54 (VHH, not shown: small tags and cut ends)
VHH: QVQLQESGGGLVQPGGSLRLSCTASGSIVSIYNMDWYRQAPGNEREWVASITSSGDPYYDGSAKGRFTISRDNAKMTVYLQMNSLEPEDTAVYFCKVPTEKGNYWGQGTQVTVSS
notes: tested as periplasmic extract; also called 3CRHSS4
B8: anti-IL-12Rβ2 VHH clone 3CRHS9 (VHH, not shown: small tags and cut ends)
VHH: B7 VHH with E86K, F94Y
notes: tested as periplasmic extract
B9: anti-IL-12Rβ2 VHH clone 3CAHS171 (VHH, not shown: small tags and cut ends)
VHH: QVQLQESGGGLVQPGGSLRLTCVASGFPFSTHAMSWVRQPPGKGREWISAINSGGDSTDYADSVMGRFTISRDNAKNTVYLQMNSLKSEDTAAYYCAKYEDCSDYDCSSRASWGQGTQVTVSS
notes: tested as periplasmic extract; also called 3CANS171
B10: anti-IL-12Rβ2 VHH clone 3CRHS128 (VHH, not shown: small tags and cut ends)
VHH: QVQLQESGGGLVQPGGSLRLSCAASGFTFSTSGMHWFRQAPGKGLEWVSSIGATVDNSYYASSVKGRFTISRDNAKNTLYLLMNSLKSEDTAVYYCSKDPTGSSRGQGTQVTVSS
notes: tested as periplasmic extract; also called SCRHS128
B11: anti-IL-12Rβ2 VHH clone 3CRHS163 (VHH, not shown: small tags and cut ends)
VHH: QVQLQESGGGLVQPGGSLRLSCTASGFAFSTYWMYWIRQSPEKGFEWVSVVNTGGDITYYADSVKGRFTISRDNAKNTLYLQMNSLKPEDTALYYCARDRTTMSYTRTYYRGGQGTQVTVSS
notes: tested as periplasmic extract

The first assay has as its target T1, biotinylated recombinant human IL-12Rβ2 …. As to the kind of experiment: ELISA, P.E. VHH on biotinylated hIL-12RB2, signal ratio to control well.
As for B1, the “ELISA hIL12RB2/control” value was 10.2.

For the molecule B2, the “ELISA hIL12RB2/control” value is 4.98.

For B3, the “ELISA hIL12RB2/control” value turned out to be 8.64.

Turning to B4, the “ELISA hIL12RB2/control” value was 5.67.

With B5, the “ELISA hIL12RB2/control” value worked out at 3.54.

As to B6, the “ELISA hIL12RB2/control” value came out at 5.16.

Take B7: the “ELISA hIL12RB2/control” value amounted to 7.85.

B8: the “ELISA hIL12RB2/control” value is 5.08.

Consider B9, for which the “ELISA hIL12RB2/control” value stood at 3.27.

Consider B10, for which the “ELISA hIL12RB2/control” value was found to be 3.65.

As for B11, the “ELISA hIL12RB2/control” value came out at 3.58.

The target in the next assay is T2, human IL-12Rβ2 expressed on cells. As to the kind of experiment: flow cytometry, P.E. VHH on HEK293T cells transiently expressing hIL-12RB2.
For B1, the dMFI was 1010.

B2 had a dMFI of 812.

In turn, B3 registered a dMFI of 735.

In the case of B4, the dMFI amounted to 1100.

Turning to B5, the dMFI came to 994.

Turning to B6, the dMFI was 520.

In turn, B7 displayed a dMFI of 870.

B8 gave a dMFI of 941.

In turn, B9 registered a dMFI of 1180.

In the case of B10, the dMFI was 1380.

B11 had a dMFI of 1050.

The target in another assay is T1, biotinylated recombinant human IL-12Rβ2 …. Put plainly: BLI (Octet), P.E. VHH on immobilised biotinylated hIL-12RB2.
Take B1: the Response was 0.297.

Regarding B2, the Response came out at 0.352.

As for B3, the Response worked out at 0.491.

Take B4: the Response was 0.293.

For the molecule B5, the Response was 0.323.

Regarding B6, the Response was 0.523.

As for B7, the Response came to 0.203.

Take B8: the Response was determined as 0.222.

Consider B9, for which the Response came to 0.195.

B10: the Response came to 0.294.

With B11, the Response worked out at 0.339.

A further assay shares this target. Put plainly: BLI (Octet), P.E. VHH on immobilised biotinylated hIL-12RB2, 1:1 model.
As for B1, the koff was 0.00355 s⁻¹.

Consider B2, for which the koff is 0.00324 s⁻¹.

As for B3, the off-rate constant (koff) came out at 0.00337 s⁻¹.

Regarding B4, the dissociation rate constant (koff) was determined as 0.00324 s⁻¹.

Regarding B5, the koff was found to be 0.00267 s⁻¹.

On to B6, for which the koff is 0.00205 s⁻¹.

Consider B7, for which the koff stood at 0.00272 s⁻¹.

For the molecule B8, the dissociation rate constant (koff) worked out at 0.0034 s⁻¹.

Turning to B9, the koff came to 0.00431 s⁻¹.

As to B10, the koff amounted to 0.00274 s⁻¹.

In the case of B11, the koff worked out at 0.00302 s⁻¹.

Another assay has as its target T3, biotinylated recombinant mouse IL-12Rβ2 …. Put plainly: ELISA, P.E. VHH on biotinylated mIL-12RB2.
On to B1, for which the binding result is listed as “no binding”.

Consider B2, for which the binding result is “no binding”.

As for B3, the binding result is recorded as “no binding”.

On to B4, for which the binding result is “no binding”.

For the molecule B5, the binding result is reported as “no binding”.

In the case of B6, the binding result is given as “no binding”.

With B7, the binding result was “no binding”.

For the molecule B8, the binding result was “no binding”.

As for B9, the binding result is given as “no binding”.

As to B10, the binding result is recorded as “no binding”.

As for B11, the binding result is listed as “no binding”.

Another assay has the same target. Put plainly: ELISA, P.E. VHH on biotinylated mIL-12RB2, signal ratio to control well.
B1: the “ELISA mIL12RB2/control” value amounted to 1.03.

With B2, the “ELISA mIL12RB2/control” value was determined as 1.07.

Regarding B3, the “ELISA mIL12RB2/control” value stood at 0.81.

Regarding B4, the “ELISA mIL12RB2/control” value came out at 1.

For B5, the “ELISA mIL12RB2/control” value was 1.02.

For B6, the “ELISA mIL12RB2/control” value was found to be 1.04.

Regarding B7, the “ELISA mIL12RB2/control” value was 1.26.

Regarding B8, the “ELISA mIL12RB2/control” value is 1.09.

As to B9, the “ELISA mIL12RB2/control” value turned out to be 0.96.

For B10, the “ELISA mIL12RB2/control” value is 0.98.

Take B11: the “ELISA mIL12RB2/control” value was found to be 0.93.
